Source: FireProtDB (doi:10.1038/342296a0)

B1: Ribonuclease, P00648 (parent)
chain: MMKMEGIALKKRLSWISVCLLVLVSAAGMLFSTAAKTETSSHKAHTEAQVINTFDGVADYLQTYHKLPDNYITKSEAQALGWVASKGNLADVAPGKSIGGDIFSNREGKLPGKSGRTWREADINYTSGFRNSDRILYSSDWLIYKTTDHYQTFTKIR

Variants of: B1
Conditions: Bacillus amyloliquefaciens; pH 6.3; 25 °C; Urea; Fluorescence; MES 19.3 mM; reversible: yes; structure 1BNI; whole UniProt chain shown

ddG of mutation (higher = less stable) [kcal/mol] of substitutions, site by site:
T73: A 2.11 | E 0.05 | V 2.31 | Q 1.72 | G 1.58 | N 1.29
T53: A 2.53 | D -0.11 | E 0.27 | Q 1.87 | S 0.22 | N 1.27 | G 1.34
